From paper PMC4459817, “Vasculotide reduces endothelial permeability and tumor cell extravasation in the absence of binding to or agonistic activation of Tie2” (EMBO Molecular Medicine, 2015)
Blank lines part the entries; values can stand above or below the molecule they belong to.

How the values were obtained:
[1] = system: pancreatic neuroendocrine tumors; settings: ref Paez-Ribes et al, 2009; cited from earlier work
Excerpt: There are at least two plausible explanations for this differential impact of SU on hematogenous metastasis (to lung/liver) vs. lymphogenous metastasis (to LNs). Paez-Ribes et al ...

[2] = system: SN12luc lung metastases in YFP-SCID mice; experiment: experimental SN12luc lung metastasis model (IV); type: in vivo, human SN12luc cells in YFP-SCID mice; settings: VT 250 ng/2 days or 400 ng/2 days; Fig3E–G; 50DPI imaging
Excerpt: Figure 3 Vasculotide has no effect on experimental liver metastases from a colon cancer cell line (HT29^luc), nor on experimental lung metastases from a renal cancer cell line (SN12^luc) • A–D An experiment where HT29^luc tumor cells were implanted intravenously into YFP-SCID mice. (A) Kaplan–Meier survival analysis. (B) Quantification of total metastatic burden in the liver and lymphatics, at 35 days post-implantation (DPI), from whole-body bioluminescent imaging (C). (D) Photograph of typical liver metastases. • E–G An experiment where SN12^luc tumor cells were implanted intravenously into YFP-SCID mice. (E) Kaplan–Meier survival analysis. (F) Quantification of total metastatic burden at 50DPI, mostly within the lungs, from whole-body bioluminescent imaging (G). […]
For in vivo BI: Mice were injected intraperitoneally with 150mg/kg luciferin (Promega) 10 minutes prior to and anesthetized with isofluorane just before luminescent pseudocolor imaging (uniform settings: CCD camera locked at -105 °C, exposure=60s, f/1, subject size=1.5cm, bin=8, FOV=23.2cm, full image correction) using the IVIS 200 Imaging System (Caliper/PerkinElmer). Using the Living Image software (v2.50.1, Xenogen), weekly images were analyzed under uniform color range on grayscale photographic overlay. […]

[3] = target: T1, human Tie2-Fc (Fc-conjugated extracellular domain of Tie2) (human, UniProt Q02763 23-748); experiment: SPR
T1 chain: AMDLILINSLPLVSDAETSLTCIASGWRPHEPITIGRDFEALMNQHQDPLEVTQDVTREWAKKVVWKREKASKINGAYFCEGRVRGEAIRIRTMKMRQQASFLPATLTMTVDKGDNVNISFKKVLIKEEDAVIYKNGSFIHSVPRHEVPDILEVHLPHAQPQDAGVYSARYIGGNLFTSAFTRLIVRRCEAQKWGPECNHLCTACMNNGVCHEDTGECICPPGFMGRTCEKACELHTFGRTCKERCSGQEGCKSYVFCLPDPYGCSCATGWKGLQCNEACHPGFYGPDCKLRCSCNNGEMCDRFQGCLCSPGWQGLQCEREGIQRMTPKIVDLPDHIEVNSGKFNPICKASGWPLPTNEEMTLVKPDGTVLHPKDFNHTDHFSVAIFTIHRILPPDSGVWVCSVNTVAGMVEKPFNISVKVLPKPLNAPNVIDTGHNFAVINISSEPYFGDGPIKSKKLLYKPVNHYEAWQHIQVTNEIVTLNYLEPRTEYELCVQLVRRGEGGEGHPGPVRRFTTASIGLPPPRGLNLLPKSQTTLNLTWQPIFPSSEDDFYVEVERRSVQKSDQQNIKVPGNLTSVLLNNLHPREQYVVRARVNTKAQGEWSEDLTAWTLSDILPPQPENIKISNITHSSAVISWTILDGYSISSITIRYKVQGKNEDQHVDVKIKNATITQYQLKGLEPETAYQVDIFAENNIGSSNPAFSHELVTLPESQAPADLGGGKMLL

[4] = target: T2, human Tie2-Fc (Fc-conjugated extracellular domain of Tie2) (human, UniProt Q02763 23-748); experiment: pull-down; purified human or mouse Tie2-Fc coupled to protein A sepharose beads; input ligand (rhAng1 or VT) incubated with the beads; bound and unbound fractions compared; beads only as control; settings: both partners purified
T2 construct: Tie2 receptor tyrosine kinase, human, extracellular domain; the supplementary Materials and Methods may tell them; also called hTie2-Fc; hTie2; source: purified

[5] = target: T3, mouse Tie2-Fc (Fc-conjugated extracellular domain of Tie2) (mouse, UniProt Q02858 23-746); experiment: as above; settings: both partners purified
T3 construct: Tie2 receptor tyrosine kinase, mouse, extracellular domain; the supplementary Materials and Methods may tell them; also called mTie2-Fc; mTie2; source: purified

Molecule: CCN(CC)CCNC(=O)c1c(C)[nH]c(/C=C2\C(=O)Nc3ccc(F)cc32)c1C [sunitinib, reference compound]
metastasis to the liver but not the lymph nodes [1]: increased metastasis to the liver but not the lymph nodes

Molecule: CHHHRHSF [Vasculotide, 4-armed maleimide-functionalized polyethylene glycol (PEG) backbone to link together four cysteine-capped T7 peptides, that is, CHHHRHSF]
lung metastases response [2]: did not respond to VT treatment

koff [3]: 0.00029 s⁻¹
binding result [4]: binds
binding result [5]: binds
B1: recombinant human Ang1 (rhAng1) (ligand, UniProt Q15389 16-498, looked up)
chain: HIGCSNQRRSPENSGRRYNRIQHGQCAYTFILPEHDGNCRESTTDQYNTNALQRDAPHVEPDFSSQKLQHLEHVMENYTQWLQKLENYIVENMKSEMAQIQQNAVQNHTATMLEIGTSLLSQTAEQTRKLTDVETQVLNQTSRLEIQLLENSLSTYKLEKQLLQQTNEILKIHEKNSLLEHKILEMEGKHKEELDTLKEEKENLQGLVTRQTYIIQELEKQLNRATTNNSVLQKQQLELMDTVHNLVNLCTKEGVLLKGGKREEEKPFRDCADVYQAGFNKSGIYTIYINNMPEPKKVFCNMDVNGGGWTVIQHREDGSLDFQRGWKEYKMGFGNPSGEYWLGNEFIFAITSQRQYMLRIELMDWEGNRAYSQYDRFHIGNEKQNYRLYLKGHTGTAGKQSSLILHGADFSTKDADNDNCMCKCALMLTGGWWFDACGPSNLNGMFYTAGQNHGKLNGIKWHYFKGPSYSLRSTTMMIRPLDF
notes: angiopoietin-1, human, recombinant; also called angiopoietin-1; source: bought: R&D Systems (named for the Boyden chamber experiments)
